Data taken from patent US20160200831A1 (Sanofi, published 2016).
Where a chain is given by its changes, count along the chain named. Like-named read-outs stand apart in the source and are kept apart here.

B1: A44-hv9 (antibody, V domains shown)
VH: QMQLQESGPGLVKPSETLSLTCTVSGDSMTNGYWNWIRQPPGKGLEYMGYITYSGSTYYNPSLKSRITISRDTSKNQYSLKLSSVTAADTAVYYCARWHYGSPYYFDYWGQGTLVTVSS
VL: DIQMTQSPSSLSASVGDRVTITCKASQDINSYLSWLQQKPGKAPKTLIYRANRSVDGVPSRFSGSGSGQDYTFTISSLQPEDIATYYCLQYDEFPPTFGGGTKVEIK
notes: humanized A44, HEK293; constant regions as for A44-hv1; also called LC5b x HC5b; variant 9
B2: APGv2 (antibody, V domains shown)
VH: QVQLVQSGSELKKPGASVKVSCKASGYSFTDYNMNWVRQAPGQGLEWIGIIHPNSGTTTYNQKFKGRAVLSVDQSVSTAYLQISSLKAEDTAVYYCARSKLRFFDYWGQGTLVTVSS
VL: B1 VL with M4L, N30Y, L36F, S54L, V55I, P96F, G100Q, V104L
notes: humanized APG; captured by anti-human IgG (Fc); also called APG variant 2
B3: A44-hv14 (antibody, V domains shown)
VH: B1 VH
VL: B1 VL with Q3K, A43S, N52Q, D56E, T72S, F73L, I83L, V104L
notes: humanized A44, HEK293; constant regions as for A44-hv1; also called LC4 x HC5b; variant 14
B4: A44-hv8 (antibody, V domains shown)
VH: B1 VH with M2V, D72N
VL: B1 VL with T46L, Q69T
B5: C45 (antibody, mouse IgG2b, V domains shown)
VH: QVQLQQSGVELVRPGTSVKVSCKASGYAFTNYLIEWIKQRPGQGLEWIGVIHPGSGVTNYNEKFKGKAILTADKSSSTAYMQLSSLTSDDSAVYFCARDYYGSSHGLMDYWGQGTSVTVSS
VL: DIKMTQSPSSMYASLGERVTITCKASQDINSYLSWFQQKPGKSPKTLIYRANRLVDGVPSRFSGSGSGQDYSLTISSLEYEDMGIYYCLQYDEFPRTFGGGTKLEIK
notes: mouse IgG2b; also called mC45; C45 (IgG2b)
B6: APG (antibody, V domains shown)
VH: QVKLQESGPELVKPGASVKISCKASGYSFTDYNMNWVKQSKGKSLEWIGIIHPNSGTTTYNQKFKGKATLTVDQSSSTAYLQLNSLTSEDSAVYYCARSKLRFFDYWGQGTTVTVSS
VL: B5 VL with M4L, N30Y, V55I, D82H, R96F, G100S
notes: murine anti-PAI-1 antibody of DE2000153251; also called mAPG; mouse APG
B7: A44-hv5 (antibody, V domains shown)
VH: EMTLKESGPTLVKPTQTLSLTCSVTGDSMTQGYWNWIRKFPGKALEYMGYITYSGSTYYNPSLKGRISITRNTSKNQYYLTLSSVTTVDTATYYCARWHYGSPYYFDYWGQGTTLTVSS
VL: B1 VL with Q3K, A43S, N52Q, D56E, T72S, F73L, I83L, A84G, T85I, V104L
notes: humanized A44, HEK293; constant regions as for A44-hv1; also called LC2 x HC2b; variant 5
B8: A44-hv4 (antibody, V domains shown)
VH: B7 VH
VL: B1 VL with Q3K, A43S, T72S, F73L, I83L, A84G, T85I, V104L
notes: humanized A44, HEK293; constant regions as for A44-hv1; also called LC1a x HC2b; variant 4
B9: A44-hv12 (antibody, V domains shown)
VH: B7 VH with E1Q, T25S, Q31N, K39Q, S68T, N72D
VL: B1 VL with Q3K, A43S, N52Q, D56E, T72S, F73L, I83L, V104L
notes: humanized A44, HEK293; constant regions as for A44-hv1; also called LC4 x HC3; variant 12
B10: A44-hv1 (antibody, V domains shown)
VH: B7 VH with Q31N
VL: B1 VL with Q3K, A43S, T72S, F73L, I83L, A84G, T85I, V104L
notes: humanized A44, HEK293; also called LC1a x HC1a; variant 1
B11: A44-hv6 (antibody, V domains shown)
VH: B7 VH with E1Q, T25S, Q31N, K39Q, S68T, N72D
VL: B1 VL with Q3K, A43S, T72S, F73L, I83L, V104L
notes: humanized A44, HEK293; constant regions as for A44-hv1; also called LC3 x HC3; variant 6

How the values were obtained:
human PAI-1 [1] = biological target: T1, human PAI-1 (human, UniProt P05121 24-402); assay: cell-based or functional assay
T1 sequence (P05121 24-402 limits assumed): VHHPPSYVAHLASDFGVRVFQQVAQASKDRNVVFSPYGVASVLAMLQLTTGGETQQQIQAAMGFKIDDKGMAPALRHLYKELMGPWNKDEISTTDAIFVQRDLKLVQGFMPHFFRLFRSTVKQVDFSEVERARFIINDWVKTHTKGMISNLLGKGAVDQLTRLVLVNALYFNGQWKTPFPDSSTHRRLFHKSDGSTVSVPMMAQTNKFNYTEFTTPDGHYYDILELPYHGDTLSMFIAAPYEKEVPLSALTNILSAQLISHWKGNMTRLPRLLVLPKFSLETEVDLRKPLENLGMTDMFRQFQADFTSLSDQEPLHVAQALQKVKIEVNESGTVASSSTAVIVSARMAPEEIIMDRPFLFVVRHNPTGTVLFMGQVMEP

[2] = biological target: T2, glycosylated human PAI-1 (active form) (human, UniProt P05121 24-402, glycosylated); assay: cell-based or functional assay
T2 sequence (P05121 24-402 limits assumed): as above

[3] = biological target: T2, glycosylated human PAI-1 (active form); assay: cell-based or functional assay; remark: listed apart in the source
[4] = biological target: T3, cyno PAI-1 captured on immobilized human vitronectin (cynomolgus monkey; human, UniProt P04004 20-478, limits assumed); assay: Biacore, cPAI-1 on vitronectin chip, 1:1 model
T3 construct: non-covalent complex formed on the chip; also called cPAI-1/Vn
T3 sequence (chain, as listed by the source limits assumed, chain 1 of 2): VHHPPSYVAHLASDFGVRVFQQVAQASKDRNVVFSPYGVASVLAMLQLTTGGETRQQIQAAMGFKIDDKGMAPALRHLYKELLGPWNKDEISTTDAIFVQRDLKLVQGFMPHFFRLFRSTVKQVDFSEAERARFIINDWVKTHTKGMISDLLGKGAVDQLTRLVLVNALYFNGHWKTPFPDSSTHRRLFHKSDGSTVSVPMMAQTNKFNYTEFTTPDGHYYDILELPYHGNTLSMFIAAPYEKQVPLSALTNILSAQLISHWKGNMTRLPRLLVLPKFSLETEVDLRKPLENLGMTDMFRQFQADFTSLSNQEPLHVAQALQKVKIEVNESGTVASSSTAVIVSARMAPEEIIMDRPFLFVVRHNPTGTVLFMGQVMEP
T3 sequence (P04004 20-478 limits assumed, chain 2 of 2): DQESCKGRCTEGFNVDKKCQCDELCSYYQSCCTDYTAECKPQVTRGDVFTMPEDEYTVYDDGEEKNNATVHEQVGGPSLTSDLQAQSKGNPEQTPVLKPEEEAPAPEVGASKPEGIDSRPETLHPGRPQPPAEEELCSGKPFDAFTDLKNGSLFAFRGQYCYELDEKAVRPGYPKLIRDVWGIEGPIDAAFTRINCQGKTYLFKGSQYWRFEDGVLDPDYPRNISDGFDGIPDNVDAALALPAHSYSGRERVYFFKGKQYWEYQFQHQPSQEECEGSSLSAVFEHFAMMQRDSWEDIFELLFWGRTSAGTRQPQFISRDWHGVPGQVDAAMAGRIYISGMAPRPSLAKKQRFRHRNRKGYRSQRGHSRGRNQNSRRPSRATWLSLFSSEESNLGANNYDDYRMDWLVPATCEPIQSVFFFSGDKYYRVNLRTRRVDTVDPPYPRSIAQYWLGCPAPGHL

[5] = biological target: T4, human PAI-1 captured on immobilized human vitronectin (human, UniProt P04004 20-478); assay: Biacore, hPAI-1 on vitronectin chip, 1:1 model
T4 construct: non-covalent complex formed on the chip or plate; also called PAI-1/Vn complex; Vn captured hPAI-1
T4 sequence (chain, as listed by the source limits assumed, chain 1 of 2): as the sequence (P05121 24-402 limits assumed) above
T4 sequence (P04004 20-478 limits assumed, chain 2 of 2): as the sequence (P04004 20-478 limits assumed, chain 2 of 2) above

human PAI-1 [6] = biological target: T1, human PAI-1; assay: cell-based or functional assay; remark: listed apart in the source
[7] = biological target: T2, glycosylated human PAI-1 (active form); assay: cell-based or functional assay; remark: listed apart in the source
[8] = biological target: T2, glycosylated human PAI-1 (active form); assay: SPR Biacore 2000, mAb captured by anti-Fc, single-cycle kinetics, 1:1 model
Procedure: First, the surface of a Sensor Chip CM5 (GE Healthcare, Uppsala, Sweden) was prepared using routine amine coupling for the capture of the mouse and human anti-Fc (Anti-human IgG (Fc) antibody & Anti-mouse IgG antibody kits, GE Healthcare). All monoclonal antibodies (mAbs) were diluted to 5 nM using HBS-EP running buffer. Each purified mAb was captured for three minutes on a different flow cell surface. Human PAI-1 was injected at various concentrations (2.5, 5, 10, 20 and 40 nM) with short dissociation times in between and a long dissociation time at the end (contact time: 120 seconds, short dissociation: 90 seconds; long dissociation: 1800 seconds, flow rate: 50 μl/min). The chip was regenerated by glycine-HCl, pH 1.7 buffer after each round of antibody-PAI-1 binding. Kinetics data analysis was performed using Biacore BIAevaluation software. The sensorgrams were double-referenced by subtracting the reference flow cell values and the blank buffer values. The sensorgrams were fitted by using the simulated kinetics 1:1 (Langmuir) model with local Rmax. (see FIG. 19).

human PAI-1 [9] = biological target: T1, human PAI-1; assay: cell-based or functional assay; remark: listed apart in the source
cynomolgus PAI-1 [10] = biological target: T5, cynomolgus PAI-1 (cynomolgus monkey (Macaca fascicularis), UniProt P05121 24-402 (human entry)); assay: cell-based or functional assay
human PAI-1 [11] = biological target: T1, human PAI-1; assay: Biacore, mAb on anti-human IgG Fc chip, 1:1 model
cynomolgus PAI-1 [12] = biological target: T5, cynomolgus PAI-1; assay: Biacore, mAb on anti-human IgG Fc chip / cyno PAI-1, 1:1 model
[13] = biological target: T2, glycosylated human PAI-1 (active form); assay: cell-based or functional assay; remark: listed apart in the source
[14] = biological target: T2, glycosylated human PAI-1 (active form); assay: cell-based or functional assay; remark: listed apart in the source
human PAI-1 [15] = biological target: T1, human PAI-1; assay: Biacore, hybridoma supernatant
[16] = biological target: T3, cyno PAI-1 captured on immobilized …; assay: Biacore, cPAI-1 on vitronectin chip, two state reaction model
[17] = biological target: T3, cyno PAI-1 captured on immobilized …; assay: Biacore, cPAI-1 on vitronectin chip, two state reaction model (ka1)
[18] = biological target: T3, cyno PAI-1 captured on immobilized …; assay: Biacore, cPAI-1 on vitronectin chip, two state reaction model (kd1)

Binder | Chromogenic Assay IC50 (human PAI-1 [1]) | Plasminogen Activation Y50% [2] | Plasminogen Activation IC50 [3] | Plasminogen Activation Y50% [3] | Kd [4] | koff [4] | kon [4] | Kd [5] | koff [5] | kon [5] | also measured
B1 | 0.86 nM | 46.5% | 1.51 nM | 50.9% | 0.0215 nM | 0.000134 s⁻¹ | 6.51e+06 M⁻¹ s⁻¹ | 0.017 nM | 0.000103 s⁻¹ | 6.36e+06 M⁻¹ s⁻¹ | Plasminogen Activation IC50 [2]: 1.9 nM
B2 | – | – | – | – | – | – | – | – | – | – | PAI-1 activity in human plasma (uPA-PAI-1 complex ELISA), IC50abs (human PAI-1 [6]): 0.962 nM; PAI-1 activity in human plasma (uPA-PAI-1 complex ELISA), Imax (human PAI-1 [6]): 94.5%; human plasma clot lysis, IC50 [7]: 2.08 nM; human plasma clot lysis, Imax @ 100 nM [7]: 114%; Kd [8]: 0.0408 nM; koff [8]: 0.000269 s⁻¹
B3 | – | – | 1.82 nM | 61.2% | 0.0386 nM | 0.000213 s⁻¹ | 5.86e+06 M⁻¹ s⁻¹ | 0.00957 nM | 3.95e-05 s⁻¹ | 4.06e+06 M⁻¹ s⁻¹ | active PAI-1 by uPA-PAI-1 complex ELISA, hPAI-1 Standard, IC50 (human PAI-1 [9]): 0.0563 nM; active PAI-1 by uPA-PAI-1 complex ELISA, hPAI-1 Standard, Y50% (human PAI-1 [9]): 52.5%; active PAI-1 by uPA-PAI-1 complex ELISA, hPlasma TH1782, IC50 (human PAI-1 [9]): 0.0586 nM; active PAI-1 by uPA-PAI-1 complex ELISA, hPlasma TH1782, Y50% (human PAI-1 [9]): 73.9%; active PAI-1 by uPA-PAI-1 complex ELISA, Cyno PAI-1, IC50 (cynomolgus PAI-1 [10]): 0.0287 nM; active PAI-1 by uPA-PAI-1 complex ELISA, Cyno PAI-1, Y50% (cynomolgus PAI-1 [10]): 52.5%; Kd (human PAI-1 [11]): 0.027 nM; koff (human PAI-1 [11]): 3.42e-05 s⁻¹; kon (human PAI-1 [11]): 1.25e+06 M⁻¹ s⁻¹; Kd (cynomolgus PAI-1 [12]): 0.0115 nM; koff (cynomolgus PAI-1 [12]): 2.69e-05 s⁻¹; kon (cynomolgus PAI-1 [12]): 2.32e+06 M⁻¹ s⁻¹
B4 | 0.76 nM | 11% | – | – | – | – | – | – | – | – | –
B5 | – | – | – | – | – | – | – | – | – | – | plasmin generation, hepatic stellate cells, IC50abs [13]: 6.5 nM; plasmin generation, hepatic stellate cells, Imax [13]: 97%; Chromogenic Assays [14]: 0.5 nM; Plasmin Generation [14]: 10.6 nM; koff (human PAI-1 [15]): ≤ 0.0001 s⁻¹
B6 | – | – | – | – | – | – | – | – | – | – | PAI-1 activity in human plasma (uPA-PAI-1 complex ELISA), IC50abs (human PAI-1 [6]): 1.81 nM; PAI-1 activity in human plasma (uPA-PAI-1 complex ELISA), Imax (human PAI-1 [6]): 89.7%; human plasma clot lysis, IC50 [7]: 2.34 nM; human plasma clot lysis, Imax @ 100 nM [7]: 123%; Kd [8]: 0.113 nM; koff [8]: 0.000432 s⁻¹
B7 | 1.11 nM | – | – | – | 0.0326 nM | 0.000111 s⁻¹ | 3.4e+06 M⁻¹ s⁻¹ | 0.0102 nM | 2.76e-05 s⁻¹ | 2.72e+06 M⁻¹ s⁻¹ | –
B8 | 0.52 nM | 26% | – | – | – | – | – | 0.0192 nM | 8.8e-05 s⁻¹ | 4.59e+06 M⁻¹ s⁻¹ | Kd [16]: 0.752 nM; kon [17]: 226000 M⁻¹ s⁻¹; koff [18]: 0.00017 s⁻¹
B9 | – | – | 1.99 nM | 76.7% | 0.0569 nM | 0.000235 s⁻¹ | 4.26e+06 M⁻¹ s⁻¹ | 0.0161 nM | 8.14e-05 s⁻¹ | 5.15e+06 M⁻¹ s⁻¹ | active PAI-1 by uPA-PAI-1 complex ELISA, hPAI-1 Standard, IC50 (human PAI-1 [9]): 0.114 nM; active PAI-1 by uPA-PAI-1 complex ELISA, hPAI-1 Standard, Y50% (human PAI-1 [9]): 53.5%; active PAI-1 by uPA-PAI-1 complex ELISA, hPlasma TH1782, IC50 (human PAI-1 [9]): 0.00335 nM; active PAI-1 by uPA-PAI-1 complex ELISA, hPlasma TH1782, Y50% (human PAI-1 [9]): 37.7%; active PAI-1 by uPA-PAI-1 complex ELISA, Cyno PAI-1, IC50 (cynomolgus PAI-1 [10]): 0.0266 nM; active PAI-1 by uPA-PAI-1 complex ELISA, Cyno PAI-1, Y50% (cynomolgus PAI-1 [10]): 53.5%; Kd (human PAI-1 [11]): 0.0414 nM; koff (human PAI-1 [11]): 6.7e-05 s⁻¹; kon (human PAI-1 [11]): 1.62e+06 M⁻¹ s⁻¹; Kd (cynomolgus PAI-1 [12]): 0.0244 nM; koff (cynomolgus PAI-1 [12]): 5.45e-05 s⁻¹; kon (cynomolgus PAI-1 [12]): 2.24e+06 M⁻¹ s⁻¹
B10 | 0.49 nM | 45% | 2.08 nM | 58.5% | – | – | – | 0.0526 nM | 0.000555 s⁻¹ | 1.1e+07 M⁻¹ s⁻¹ | Plasminogen Activation IC50 [2]: 3.12 nM; Kd [16]: 2.45 nM; kon [17]: 3.37e+06 M⁻¹ s⁻¹; koff [18]: 0.00827 s⁻¹
B11 | 0.82 nM | 56.9% | – | – | 0.00501 nM | 2.51e-05 s⁻¹ | 5.26e+06 M⁻¹ s⁻¹ | 0.0133 nM | 5.68e-05 s⁻¹ | 4.38e+06 M⁻¹ s⁻¹ | Plasminogen Activation IC50 [2]: 1.78 nM
